The chains are these.
B1: Arabidopsis thaliana cryptochrome 2 (CRY2, UniProt Q96524), residues 1-535 fused after the Gal4 DNA-binding domain (Gal4BD-CRY2(535)); mutagenized window 321-412, Q96524 (parent)
chain: MKMDKKTIVWFRRDLRIEDNPALAAAAHEGSVFPVFIWCPEEEGQFYPGRASRWWMKQSLAHLSQSLKALGSDLTLIKTHNTISAILDCIRVTGATKVVFNHLYDPVSLVRDHTVKEKLVERGISVQSYNGDLLYEPWEIYCEKGKPFTSFNSYWKKCLDMSIESVMLPPPWRLMPITAAAEAIWACSIEELGLENEAEKPSNALLTRAWSPGWSNADKLLNEFIEKQLIDYAKNSKKVVGNSTSLLSPYLHFGEISVRHVFQCARMKQIIWARDKNSEGEESADLFLRGIGLREYSRYICFNFPFTHEQSLLSHLRFFPWDADVDKFKAWRQGRTGYPLVDAGMRELWATGWMHNRIRVIVSSFAVKFLLLPWKWGMKYFWDTLLDADLECDILGWQYISGSIPDGHELDRLDNPALQGAKYDPEGEYIRQWLPELARLPTEWIHHPWDAPLTVLKASGVELGTNYAKPIVDIDTARELLAKAISRTREAQIMIGAAPDEIVADSFEALGANTIKEPGLCPSVSSNDQQVPSAV

For 25 variants, enrichment results are on record in PMC12212125, “Constitutively active Arabidopsis cryptochrome two alleles identified using yeast selection and deep mutational scanning” (The Journal of Biological Chemistry, 2025).

In this experiment the parent is B1. Put plainly: yeast two-hybrid growth selection (MaV203; Gal4BD-CRY2(1-535) library x Gal4AD-CIB1; URA3 reporter on SC -Trp/-Leu/-Ura) in the dark, deep sequencing before and after selection, Enrich2 scoring; three independent screens (one at 48 h, two …). The conditions noted are these: with CIB1 (CRYPTOCHROME-INTERACTING BASIC-HELIX-LOOP-HELIX 1), dark (no blue light), screens 1, 3 and 4, Svar > 0 = enriched under dark selection for CRY2-CIB1 two-hybrid growth (URA3 reporter), < 0 = depleted, relative to wild type (whose scores are 0). 'The Enrich2 software calculates, parent: 0, not an affinity, scale: Enrich2 score, numbering: uniprot, sequence starts at 1.
Take M345R: the enrichment was -1.12.
In the case of D342Y, the enrichment is -1.02.
For L371H, the enrichment was 2.16.
For P373S, the enrichment is -0.52.
For I400N, the enrichment was -0.48.
As for A323D, the enrichment was 0.677.
As to V367A, the enrichment was -0.78.
As to E347D, the enrichment was -0.854.
D324N: the enrichment was -0.413.
As for W331C, the enrichment is -0.871.
Regarding W331L, the enrichment was 1.
Regarding F369V, the enrichment is 1.03.
On to M354I, for which the enrichment is 0.689.
As to N356I, the enrichment is -0.473.
With Y380N, the enrichment is -1.37.
For the variant V362D, the enrichment was -1.36.
Regarding D322E, the enrichment is 0.472.
Regarding G407R, the enrichment is -0.0452.
For G407S the value was -0.771; for I358M, 0.739; for T384P, -1.14.
Under W397G stands -0.823; under Y399S, 2.82; under Y399F, 1.58.
On to Y399I, for which the enrichment is 2.5.
